Values of other authors as cited in article PMC10653114.

Assays:
Asp43 = Asp43 (UniProt position 417, WTLTFDFPSGQ); conditions: 298 K; Conc. 0.10 (unit not given; K+/Cl–)
Asp39 = Asp39 (UniProt position 413, PVDGWDLTFSF); conditions: 298 K; Conc. 0.10 (unit not given; K+/Cl–)
Asp79 = Asp79 (UniProt position 79, EATQEDYYTGD); conditions: 295 K; Conc. 0.10 (unit not given; Na+/Cl–)
Asp25 = Asp25 (UniProt position 25, NLIASDGPFPY); conditions: 295 K; Conc. 0.10 (unit not given; Na+/Cl–)
Glu54 = Glu54 (UniProt position 54, YGYYHEYTVIT); conditions: 295 K; Conc. 0.10 (unit not given; Na+/Cl–)
Glu78 = Glu78 (UniProt position 78, GEATQEDYYTG); conditions: 295 K; Conc. 0.10 (unit not given; Na+/Cl–)
Glu14 = Glu14 (UniProt position 14, SALPPEATDTL); conditions: 295 K; Conc. 0.10 (unit not given; Na+/Cl–)
Asp17 = Asp17 (UniProt position 17, PPEATDTLNLI); conditions: 295 K; Conc. 0.10 (unit not given; Na+/Cl–)
Asp84 = Asp84 (UniProt position 84, DYYTGDHYATF); conditions: 295 K; Conc. 0.10 (unit not given; Na+/Cl–)
Asp93 = Asp93 (UniProt position 93, TFSLIDQTC--); conditions: 295 K; Conc. 0.10 (unit not given; Na+/Cl–)
Glu41 = Glu41 (UniProt position 41, VFQNRESVLPT); conditions: 295 K; Conc. 0.10 (unit not given; Na+/Cl–)
Glu74 = Glu74 (UniProt position 74, RIITGEATQED); conditions: 295 K; Conc. 0.10 (unit not given; Na+/Cl–)
Asp33 = Asp33 (UniProt position 33, FPYSQDGVVFQ); conditions: 295 K; Conc. 0.10 (unit not given; Na+/Cl–)
Asp21 = Asp21 (UniProt position 103, KAIDGDTVKLM); conditions: 298 K; Conc. 0.10 (unit not given; K+/Cl–)
Glu142 = Glu142 (UniProt position 224, LNIWSEDNADS); conditions: 298 K; Conc. 0.10 (unit not given; K+/Cl–)
Asp143 = Asp143 (UniProt position 225, NIWSEDNADSG); conditions: 298 K; Conc. 0.10 (unit not given; K+/Cl–)
Asp83 = Asp83 (UniProt position 165, KGQRTDKYGRG); conditions: 298 K; Conc. 0.10 (unit not given; K+/Cl–)
Asp19 = Asp19 (UniProt position 101, LIKAIDGDTVK); conditions: 298 K; Conc. 0.10 (unit not given; K+/Cl–)
Glu57 = Glu57 (UniProt position 139, EKYGPEASAFT); conditions: 298 K; Conc. 0.10 (unit not given; K+/Cl–)
Glu122 = Glu122 (UniProt position 204, GNNTHEQLLRK); conditions: 298 K; Conc. 0.10 (unit not given; K+/Cl–)
Glu10 = Glu10 (UniProt position 92, KKLHKEPATLI); conditions: 298 K; Conc. 0.10 (unit not given; K+/Cl–)
Asp95 = Asp95 (UniProt position 177, AYIYADGKMVN); conditions: 298 K; Conc. 0.10 (unit not given; K+/Cl–)
Glu52 = Glu52 (UniProt position 134, PKKFNEKYGPE); conditions: 298 K; Conc. 0.10 (unit not given; K+/Cl–)
Glu43 = Glu43 (UniProt position 125, LVDTPETKHPK); conditions: 298 K; Conc. 0.10 (unit not given; K+/Cl–)
Asp77 = Asp77 (UniProt position 159, IEVEFDKGQRT); conditions: 298 K; Conc. 0.10 (unit not given; K+/Cl–)
Glu73 = Glu73 (UniProt position 155, NAKKIEVEFDK); conditions: 298 K; Conc. 0.10 (unit not given; K+/Cl–)
Glu129 = Glu129 (UniProt position 211, LLRKAEAQAKK); conditions: 298 K; Conc. 0.10 (unit not given; K+/Cl–)
Asp146 = Asp146 (UniProt position 228, SEDNADSGQ--); conditions: 298 K; Conc. 0.10 (unit not given; K+/Cl–)
Glu67 = Glu67 (UniProt position 149, TKKMVENAKKI); conditions: 298 K; Conc. 0.10 (unit not given; K+/Cl–)
Glu101 = Glu101 (UniProt position 183, GKMVNEALVRQ); conditions: 298 K; Conc. 0.10 (unit not given; K+/Cl–)
Asp40 = Asp40 (UniProt position 122, RLLLVDTPETK); conditions: 298 K; Conc. 0.10 (unit not given; K+/Cl–)
Glu135 = Glu135 (UniProt position 217, AQAKKEKLNIW); conditions: 298 K; Conc. 0.10 (unit not given; K+/Cl–)
Glu75 = Glu75 (UniProt position 157, KKIEVEFDKGQ); conditions: 298 K; Conc. 0.10 (unit not given; K+/Cl–)

Highly charge-depleted protein (PDB 6QFS), S43D variant (Cellulomonas fimi (parent domain; not stated in the article); S43D (on the 6QFS charge-depleted background; background substitutions not stated))
pKa (Asp43): 4.37 ± 0.01

Highly charge-depleted protein (PDB 6QFS), S43D/T66H variant (Cellulomonas fimi (parent domain; not stated in the article); S43D;T66H (on the 6QFS charge-depleted background; background substitutions not stated))
pKa (Asp43): 4.32 ± 0.02

Highly charge-depleted protein (PDB 6QFS), T39D variant (Cellulomonas fimi (parent domain; not stated in the article); T39D (on the 6QFS charge-depleted background; background substitutions not stated))
pKa (Asp39): 5

Highly charge-depleted protein (PDB 6QFS), T39D/T66H variant (Cellulomonas fimi (parent domain; not stated in the article); T39D;T66H (on the 6QFS charge-depleted background; background substitutions not stated))
pKa (Asp39): 4.07 ± 0.02

Ribonuclease Sa (Streptomyces aureofaciens)
pKa (Asp79): 7.37 ± 0.07 | pKa (Asp25): 4.87 ± 0.07 | pKa (Glu54): 3.42 ± 0.07 | pKa (Glu78): 3.13 ± 0.07 | pKa (Glu14): 5.02 ± 0.07 | pKa (Asp17): 3.72 ± 0.07 | pKa (Asp84): 3.01 ± 0.07 | pKa (Asp93): 3.09 ± 0.07 | pKa (Glu41): 4.14 ± 0.07 | pKa (Glu74): 3.47 ± 0.07 | pKa (Asp33): 2.39 ± 0.07

Staphylococcal nuclease, Delta+PHS variant (Staphylococcus aureus; G50F;V51N;P117G;H124L;S128A;del44-49)
pKa (Asp21): 6.53 ± 0.02 | pKa (Glu142): 4.49 ± 0.04 | pKa (Asp143): 3.8 ± 0.1 | pKa (Asp83): <2.2 | pKa (Asp19): 2.21 ± 0.07 | pKa (Glu57): 3.49 ± 0.09 | pKa (Glu122): 3.89 ± 0.09 | pKa (Glu10): 2.82 ± 0.09 | pKa (Asp95): 2.16 ± 0.07 | pKa (Glu52): 3.93 ± 0.08 | pKa (Glu43): 4.32 ± 0.04 | pKa (Asp77): <2.2 | pKa (Glu73): 3.31 ± 0.01 | pKa (Glu129): 3.75 ± 0.09 | pKa (Asp146): 3.86 ± 0.05 | pKa (Glu67): 3.76 ± 0.07 | pKa (Glu101): 3.81 ± 0.1 | pKa (Asp40): 3.87 ± 0.09 | pKa (Glu135): 3.76 ± 0.08 | pKa (Glu75): 3.26 ± 0.05
